From article PMC5679713 (Structure (London, England : 1993), 2017) come the findings set out here.

One assay concerns the target PPS-PHD (Drosophila melanogaster, UniProt Q9VG78). Nature of the assay: 1H,15N HSQC NMR titration, PPS-PHD. In kind it is binding. Conditions: pH 6.9, H3 peptide residues 1-12, 298K.
In assay [1] the target is PHD finger of Drosophila PPS (PPS-PHD), wild type, as used in NMR and fluorescence (Drosophila). Nature of the assay: NMR titration.
The target is the same in assay [2]. Nature of the assay: other fluorescence titration.
Assay [3] shares this target. Nature of the assay: other fluorescence titration. This is another data set of the same source.
Assay [4] has the same target. Nature of the assay: other fluorescence titration. This is another data set of the same source.
For assay [5], the target named is T1, PHD finger of yeast Bye1 (Bye1-PHD), aa 47-134 (S. cerevisiae, UniProt P36106 47-134).
T1 sequence (looked up): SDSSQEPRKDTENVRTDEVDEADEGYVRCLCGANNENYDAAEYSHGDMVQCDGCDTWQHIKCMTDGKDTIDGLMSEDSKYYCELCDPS
Nature of the assay: other fluorescence titration.

Where no end group is shown, it is not given here. Me3 = trimethyl-lysine

PPS-PHD, sequence (Q9VG78 1-2016): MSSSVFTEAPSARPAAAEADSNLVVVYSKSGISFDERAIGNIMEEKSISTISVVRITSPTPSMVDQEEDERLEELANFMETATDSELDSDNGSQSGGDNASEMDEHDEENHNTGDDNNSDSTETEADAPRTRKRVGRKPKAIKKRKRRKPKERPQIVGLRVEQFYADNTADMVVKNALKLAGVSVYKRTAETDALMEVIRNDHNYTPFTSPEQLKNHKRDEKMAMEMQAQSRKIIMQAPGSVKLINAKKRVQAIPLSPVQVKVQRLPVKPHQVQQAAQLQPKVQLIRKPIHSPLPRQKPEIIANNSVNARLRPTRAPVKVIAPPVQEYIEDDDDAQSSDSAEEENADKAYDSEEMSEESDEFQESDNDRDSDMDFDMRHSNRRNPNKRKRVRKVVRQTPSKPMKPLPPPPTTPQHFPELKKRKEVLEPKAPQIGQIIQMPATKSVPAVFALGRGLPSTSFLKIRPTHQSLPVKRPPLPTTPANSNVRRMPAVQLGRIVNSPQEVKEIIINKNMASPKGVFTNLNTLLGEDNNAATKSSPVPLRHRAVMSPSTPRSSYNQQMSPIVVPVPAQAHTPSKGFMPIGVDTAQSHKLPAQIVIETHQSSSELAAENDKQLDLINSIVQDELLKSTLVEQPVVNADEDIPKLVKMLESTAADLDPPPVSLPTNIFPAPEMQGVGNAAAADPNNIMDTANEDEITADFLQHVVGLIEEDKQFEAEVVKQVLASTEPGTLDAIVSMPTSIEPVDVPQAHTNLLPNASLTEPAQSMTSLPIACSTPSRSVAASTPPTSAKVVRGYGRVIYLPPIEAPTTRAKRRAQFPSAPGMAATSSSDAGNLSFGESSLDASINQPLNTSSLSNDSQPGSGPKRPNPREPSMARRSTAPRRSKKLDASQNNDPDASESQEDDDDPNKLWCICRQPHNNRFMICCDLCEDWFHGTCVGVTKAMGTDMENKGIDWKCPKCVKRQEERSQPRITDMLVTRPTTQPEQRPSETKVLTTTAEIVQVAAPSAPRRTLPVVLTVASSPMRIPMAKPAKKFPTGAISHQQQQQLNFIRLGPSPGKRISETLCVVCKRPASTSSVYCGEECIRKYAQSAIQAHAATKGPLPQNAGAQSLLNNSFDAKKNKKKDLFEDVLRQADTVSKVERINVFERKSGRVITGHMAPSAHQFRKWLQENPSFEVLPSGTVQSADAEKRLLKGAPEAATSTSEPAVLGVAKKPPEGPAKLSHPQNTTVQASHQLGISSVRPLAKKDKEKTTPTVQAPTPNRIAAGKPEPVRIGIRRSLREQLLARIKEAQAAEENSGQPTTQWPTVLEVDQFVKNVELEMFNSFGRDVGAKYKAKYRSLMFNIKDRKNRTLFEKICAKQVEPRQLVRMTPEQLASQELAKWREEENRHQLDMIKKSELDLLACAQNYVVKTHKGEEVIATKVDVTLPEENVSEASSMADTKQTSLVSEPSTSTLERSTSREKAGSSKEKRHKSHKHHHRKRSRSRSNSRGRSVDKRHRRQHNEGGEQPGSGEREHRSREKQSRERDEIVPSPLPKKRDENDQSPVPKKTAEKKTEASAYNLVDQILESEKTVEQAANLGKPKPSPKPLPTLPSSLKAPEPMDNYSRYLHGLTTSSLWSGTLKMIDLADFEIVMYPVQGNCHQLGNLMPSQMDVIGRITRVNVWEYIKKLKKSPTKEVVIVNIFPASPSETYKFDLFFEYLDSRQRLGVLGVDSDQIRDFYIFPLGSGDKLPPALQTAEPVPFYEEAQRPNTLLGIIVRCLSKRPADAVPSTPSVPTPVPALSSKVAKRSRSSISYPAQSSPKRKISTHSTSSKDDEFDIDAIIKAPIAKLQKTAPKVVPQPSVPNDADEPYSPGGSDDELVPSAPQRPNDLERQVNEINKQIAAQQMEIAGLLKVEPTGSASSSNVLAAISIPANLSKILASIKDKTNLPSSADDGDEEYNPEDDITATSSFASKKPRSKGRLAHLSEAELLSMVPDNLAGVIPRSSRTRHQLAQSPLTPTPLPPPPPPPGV

For the molecule “H3K4me0: H3K4me0 peptide (1–12 aa), unmethylated histone H3 tail, Synpeptide”, in the assay with PPS-PHD, the “Binding by NMR chemical shift perturbations (CSPs), in words” value was “no CSPs in PPS-PHD were seen”. Further, in the assay with PPS-PHD (NMR), the “Recognition of unmethylated histone H3 tail, in words” value is reported as “does not recognize unmethylated histone H3 tail at all”. In general, Kd refers to the free concentration of one partner at which half of the binding sites on the other are occupied at equilibrium, for simple one-to-one binding. A higher Kd goes with a looser complex. As to “histone H3K4me1 peptide (residues 1-12 of H3) (from UniProt P68431 2-13)”, the Kd in assay [1] turned out to be 230 µM. For “histone H3K4me3 peptide (residues 1-12 of H3) (from UniProt P68431 2-13)”, the values for the Kd in assay [2], in assay [3] and in assay [4] were 17 µM, 1.9 µM and 3.6 µM, respectively.

B1: histone H3K4me3 peptide (residues 1-12 of H3) (peptide, UniProt P68431 2-13, looked up)
peptide: ARTK(Me3)QTARKSTG
Regarding B1, the binding result in assay [5] was “binds”.
